The results in this text go back to patent US20200087394A1.

The target of this assay is CD16 receptor on Jurkat-hCD16aF cells (human) (UniProt P08637). Briefly: cell-based or functional assay.
Chain of CD16 receptor on Jurkat-hCD16aF cells (human) (P08637 17-254): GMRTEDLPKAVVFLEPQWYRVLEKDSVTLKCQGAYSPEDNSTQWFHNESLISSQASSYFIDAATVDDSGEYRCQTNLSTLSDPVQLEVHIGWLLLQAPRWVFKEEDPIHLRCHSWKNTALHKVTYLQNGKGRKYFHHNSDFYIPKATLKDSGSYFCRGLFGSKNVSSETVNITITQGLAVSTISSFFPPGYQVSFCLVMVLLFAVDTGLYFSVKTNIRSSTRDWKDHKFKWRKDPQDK

Turning to “Anti-PDL1|atezolizumab|Fc-WT (CHOs) (from UniProt P01857 1-330) (antibody)”, the quantity of antibody required to induce 1000 pg of IL-2 from Jurkat-hCD16aF cells with PD-L1 aAPC/CHO-K1 target cells (ng per 1000 pg of IL-2) was above 1250. Then “Anti-PDL1|durvalumab|Fc-WT (CHOs) (from UniProt P01857 1-330) (antibody)”, with above 1250.
